Series [1] has as its system T1, cleavage sequence DGGGSGRSAGGGD (SEQ ID NO: 65) coupled to TCPP and to stealth-coated Fe/Fe3O4 nanoparticles.
T1 sequence: DGGGSGRSAGGGD

Series [2] has as its system oligopeptide linker containing the urokinase-specific cleavage sequence SGRSA (SEQ ID NO: 2).
Series [3] has as its system T2, GAGSGRSAGA oligopeptide sequence (SEQ ID NO: 66, deleted at the N-terminus by 1 residue and the C-terminus by 2 residues) linking Fe/Fe3O4/ASOX/stealth-nanoparticles into oligomers.
T2 sequence: GAGSGRSAGA

The subject of series [4] is T3, GAGSGRSAGAG linkage (SEQ ID NO: 66, deleted by 1 residue at each of the N-terminus and C-terminus) between nanoparticle and non-metalated TCPP.
T3 sequence: GAGSGRSAGAG

In series [5] the test system is T4, cleavage sequence for urokinase DGAGSGRSAGAGD (SEQ ID NO: 66) linking porphyrin-labeled stealth coated Fe/Fe3O4 nanoparticles.
T4 sequence: DGAGSGRSAGAGD

Series [6] has as its system urokinase consensus sequence linker DGGSGRSAGGGC (SEQ ID NO: 68) linking Fe/Fe3O4 nanoplatforms.

Chain of urokinase in rat urine (chain, as listed by the source): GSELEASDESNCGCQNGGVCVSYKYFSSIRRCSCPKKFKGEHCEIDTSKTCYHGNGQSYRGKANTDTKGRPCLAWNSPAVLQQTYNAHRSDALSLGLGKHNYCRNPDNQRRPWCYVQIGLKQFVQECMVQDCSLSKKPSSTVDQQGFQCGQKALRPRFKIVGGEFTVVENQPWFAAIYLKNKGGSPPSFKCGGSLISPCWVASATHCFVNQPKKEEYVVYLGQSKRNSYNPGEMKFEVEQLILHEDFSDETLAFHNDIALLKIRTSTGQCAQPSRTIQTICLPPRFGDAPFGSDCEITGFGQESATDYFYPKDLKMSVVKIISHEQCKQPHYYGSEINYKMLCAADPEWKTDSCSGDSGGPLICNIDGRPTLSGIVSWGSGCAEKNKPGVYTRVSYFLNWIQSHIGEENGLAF
Chain of urokinase in canine urine (chain, as listed by the source): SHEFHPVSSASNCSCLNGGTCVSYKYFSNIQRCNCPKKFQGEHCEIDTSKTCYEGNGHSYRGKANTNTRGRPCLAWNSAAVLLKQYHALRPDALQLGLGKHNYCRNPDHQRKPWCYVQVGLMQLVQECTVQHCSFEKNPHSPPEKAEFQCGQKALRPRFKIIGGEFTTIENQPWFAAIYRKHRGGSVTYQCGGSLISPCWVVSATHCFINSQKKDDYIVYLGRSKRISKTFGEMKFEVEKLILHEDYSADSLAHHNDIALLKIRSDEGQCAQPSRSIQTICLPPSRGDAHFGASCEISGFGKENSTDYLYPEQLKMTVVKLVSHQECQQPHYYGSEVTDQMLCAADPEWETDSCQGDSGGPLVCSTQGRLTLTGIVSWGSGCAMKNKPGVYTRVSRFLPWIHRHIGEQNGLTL

As to “urokinase (Sigma Aldrich, St. Louis, Mo.)”, in series [1], the “optical extinction (absorption + scattering) over 40 min, urokinase 1×10^-10 M” value is given as “the observable change of the extinction is caused by the change in scattering once the oligopeptide-tether is cleaved by the enzyme” and the “signal intensity at 440 nm divided by signal intensity at 600 nm vs. time” value is reported as “a linear slope has been obtained”. Moreover, in series [2], the “T1 relaxivity r1 after protease cleavage of the linker” value is listed as “r1 increased slightly to 180±20 mM s^-1” and the “T2 relaxivity r2 after protease cleavage of the linker” value is “r2 increased to -2,350±250 mM s^-1”. Also, in series [3], the “T1 of H2O 10 minutes after adding 1×10^-14 mol urokinase per ml (3.004 seconds before)” value is listed as “After 10 minutes, T1 had decreased to 2.003 seconds” and the “T2 of H2O 10 minutes after adding 1×10^-14 mol urokinase per ml (0.07579 seconds before)” value was “T2 had increased to 0.1334 seconds”. In series [4], the fluorescence lifetime τ1, Fe/Fe3O4-linkage-TCPP plus urokinase (1×10^-7 M) was 1.39 ns; the fluorescence lifetime τ1, Fe/Fe3O4/ASOX/Au-linkage-TCPP plus urokinase (1×10^-7 M) stood at 1.47 ns; the fluorescence lifetime τ2, Fe/Fe3O4-linkage-TCPP plus urokinase (1×10^-7 M) came to 30 ns; the fluorescence lifetime τ2, Fe/Fe3O4/ASOX/Au-linkage-TCPP plus urokinase (1×10^-7 M) stood at 29.3 ns. Besides, in series [4], the “overall fluorescence enhancement, 10 min. after urokinase was added” value was “The overall fluorescence enhancement of this system was approx. 75 (10 min. after urokinase was added)”; the relative contribution f1, Fe/Fe3O4-linkage-TCPP plus urokinase (1×10^-7 M) turned out to be 78; the relative contribution f1, Fe/Fe3O4/ASOX/Au-linkage-TCPP plus urokinase (1×10^-7 M) came out at 80; the relative contribution f2, Fe/Fe3O4-linkage-TCPP plus urokinase (1×10^-7 M) stood at 22. The relative contribution f2, Fe/Fe3O4/ASOX/Au-linkage-TCPP plus urokinase (1×10^-7 M) in series [4] worked out at 20. For the same substance, in series [5], the r2/r1 (MRI relaxivity ratio) at t = 0 min is -27.6, the r2/r1 (MRI relaxivity ratio) at t = 5 min is -21.9, the r2/r1 (MRI relaxivity ratio) at t = 10 min was -19.6 and the r2/r1 (MRI relaxivity ratio) at t = 15 min is -16.8. Besides, in series [5], the r2/r1 (MRI relaxivity ratio) at t = 20 min was -16.5, the r2/r1 (MRI relaxivity ratio) at t = 25 min was -15.8, the r2/r1 (MRI relaxivity ratio) at t = 30 min is -15.3 and the r2/r1 (MRI relaxivity ratio) at t = 40 min is -14.8. In series [5], the r2/r1 (MRI relaxivity ratio) at t = 50 min is -14.1 and the r2/r1 (MRI relaxivity ratio) at t = 60 min was -13.5.

Consider urokinase in canine urine, for which, in series [2], the “fluorescence enhancement over time, Sample B (dog undergoing chemotherapy)” value is “had a detectable enhancement in fluorescence than the control (Sample A), but was still much lower than Sample C” and the “fluorescence enhancement over time, Sample C (dog just diagnosed with cancer)” value was “showed a rapid increase in fluorescence”.

With urokinase in rat urine, the “UV/Vis backscattering spectrum of the nanoparticle-dimer over 120 minutes, rat urine (estimated urokinase 5×10^-10 M)” value in series [6] was “The change in the optical properties is clearly discernible upon the cleavage of the oligopeptides-linker by urokinase”. Besides, in series [2], the “luminescence of TCPP released from the nanoplatform, 36 day urine” value is on record as “the luminescence from TCPP increased steadily over time for the 36 day urine” and the “luminescence of TCPP released from the nanoplatform, control (5 day urine)” value was “The control (5 day urine) did not demonstrate a significant increase in luminescence”.

The values above are taken from patent US20120157824.
